Bridge positions count the residues as written; N and C are the ends. Square brackets hold non-standard residues; d marks the D form. Trp(7-Me) = Cc1cccc2c(C[C@H](N)C(=O)O)c[nH]c12; 2Nal = N[C@@H](Cc1ccc2ccccc2c1)C(=O)O; AEF = NCCOc1ccc(C[C@H](N)C(=O)O)cc1; Cit = NC(=O)NCCC[C@H](N)C(=O)O; αMeL = CC(C)C[C@](C)(N)C(=O)O; Pen = CC(C)(S)[C@H](N)C(=O)O; αMeK = C[C@](N)(CCCCN)C(=O)O; Aib = CC(C)(N)C(=O)O; βAla = NCCC(=O)O
T1: IL-23R (human, UniProt Q5VWK5 24-629)
T1 sequence (looked up): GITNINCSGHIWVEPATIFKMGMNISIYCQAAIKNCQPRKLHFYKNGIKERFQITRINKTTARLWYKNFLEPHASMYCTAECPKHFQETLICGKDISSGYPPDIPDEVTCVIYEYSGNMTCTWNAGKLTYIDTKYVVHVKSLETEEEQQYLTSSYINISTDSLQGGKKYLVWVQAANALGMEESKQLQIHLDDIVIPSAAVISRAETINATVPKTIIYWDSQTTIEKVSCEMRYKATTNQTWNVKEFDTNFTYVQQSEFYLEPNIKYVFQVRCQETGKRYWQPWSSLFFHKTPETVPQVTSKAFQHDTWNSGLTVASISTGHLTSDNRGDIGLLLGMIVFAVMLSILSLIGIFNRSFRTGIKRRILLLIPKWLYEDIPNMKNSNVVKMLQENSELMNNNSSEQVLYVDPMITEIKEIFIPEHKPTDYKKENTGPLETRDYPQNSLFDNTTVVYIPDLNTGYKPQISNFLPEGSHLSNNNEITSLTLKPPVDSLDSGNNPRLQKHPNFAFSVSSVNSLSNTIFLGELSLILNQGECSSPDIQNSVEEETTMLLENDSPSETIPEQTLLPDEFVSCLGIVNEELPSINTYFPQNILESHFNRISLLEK


Experiments:
IL-23R [1] = biological target: T1, IL-23R; test: cell-based or functional assay
IL-23R [2] = biological target: T1, IL-23R; test: cell-based or functional assay; remark: listed apart in the source

Binder	NK Cell Assay (nM) IC50 (IL-23R [1]) [nM]	pStat3 HTRF (nM) IC50 (IL-23R [2]) [nM]
XNTXKXXXXKNF (Ac-[Pen]-NT-[W(7-Me)]-[Lys(Ac)]-[Pen]-Phe[4-(2-aminoethoxy)]-[2-Nal]-[a-MeLys]-[Lys(Ac)]-N-[(D)Phe]-NH2; Pen-Pen disulfide) [SEQ ID NO: 258]	< 10	< 1
Ac-[Pen]NT[Trp(7-Me)][Cit][Pen][AEF][2Nal][αMeL]K(Ac)N[βAla]-NH2 (disulfide 1-6) [SEQ ID NO: 227]	< 10	< 1
XKTXQXXXXKNX (Ac-[Pen]-[Lys(Ac)]-T-[W(7-Me)]-Q-[Pen]-Phe[4-(2-aminoethoxy)]-[2-Nal]-[a-MeLys]-[Lys(Ac)]-N-[bA]-NH2; Pen-Pen disulfide) [SEQ ID NO: 239]	< 10	
Ac-[Pen][Cit]T[Trp(7-Me)]Q[Pen][AEF][2Nal][αMeK]K(Ac)N[βAla]-NH2 (disulfide 1-6; SMILES CC(=O)NCCCC[C@H](NC(=O)[C@](C)(CCCCN)NC(=O)[C@H](Cc1ccc2ccccc2c1)NC(=O)[C@H](Cc1ccc(OCCN)cc1)NC(=O)[C@H]1NC(=O)[C@H](CCC(N)=O)NC(=O)[C@H](Cc2c[nH]c3c(C)cccc23)NC(=O)[C@H]([C@@H](C)O)NC(=O)[C@H](CCCNC(N)=O)NC(=O)[C@@H](NC(C)=O)C(C)(C)SSC1(C)C)C(=O)N[C@@H](CC(N)=O)C(=O)NCCC(N)=O) [SEQ ID NO: 238]	< 10	
XNTXQXXXXKXX (Ac-[Pen]-NT-[W(7-Me)]-Q-[Pen]-Phe[4-(2-aminoethoxy)]-[2-Nal]-[a-MeLeu]-[Lys(Ac)]-[N-MeAla]-[bA]-NH2; Pen-Pen disulfide) [SEQ ID NO: 223]	< 10	> 100
XNTXKXXXXKNL (Ac-[Pen]-NT-[W(7-Me)]-[Lys(Ac)]-[Pen]-Phe[4-(2-aminoethoxy)]-[2-Nal]-[a-MeLys]-[Lys(Ac)]-N-[(D)Leu]-NH2; Pen-Pen disulfide) [SEQ ID NO: 245]	< 10	< 1
XNTXKXXXXKNV (Ac-[Pen]-NT-[W(7-Me)]-[Lys(Ac)]-[Pen]-Phe[4-(2-aminoethoxy)]-[2-Nal]-[a-MeLys]-[Lys(Ac)]-N-[(D)Val]-NH2; Pen-Pen disulfide) [SEQ ID NO: 251]	< 10	< 1

Second part, the binder after the results:

NK Cell Assay (nM) IC50 (IL-23R [1]) [nM]	pStat3 HTRF (nM) IC50 (IL-23R [2]) [nM]	Binder
< 10	< 1	XNTXQXXXXKNX (Ac-[Pen]-N-T-[W(7-Me)]-Q-[Pen]-Phe[4-(2-aminoethoxy)]-[2-Nal]-[a-MeOrn]-[Lys(Ac)]-N-[bA]-NH2; Pen-Pen disulfide) [SEQ ID NO: 278]
< 10		Ac-[Pen]NT[Trp(7-Me)]K(Ac)[Pen][2Nal][2Nal][αMeK]K(Ac)N[dL]-NH2 (disulfide 1-6 (inferred)) [SEQ ID NO: 289]
< 10	< 1	Ac-[Pen]NT[Trp(7-Me)][Cit][Pen][AEF][2Nal][αMeK]K(Ac)N[dY]-NH2 (disulfide 1-6 (inferred)) [SEQ ID NO: 259]
< 10		XNTXQXXXXENX (Ac-[Pen]-N-T-[W(7-Me)]-Q-[Pen]-Phe[4-(2-aminoethoxy)]-[2-Nal]-[a-MeLys]-E-N-[bA]-NH2; Pen-Pen disulfide) [SEQ ID NO: 282]
< 10		XNTXKXXXXEXX (Ac-[Pen]-N-T-[W(7-Me)]-[Lys(Ac)]-[Pen]-Phe[4-(2-aminoethoxy)]-[2-Nal]-[a-MeLys]-E-[bA]-[bA]-NH2; Pen-Pen disulfide) [SEQ ID NO: 273]
< 10	< 1	Ac-[Pen]NT[Trp(7-Me)][Cit][Pen][AEF][2Nal][αMeK]K(Ac)N[Aib]-NH2 (disulfide 1-6 (inferred)) [SEQ ID NO: 264]
< 10		XNTXKXXXXKSX (Ac-[Pen]-N-T-[W(7-Me)]-[Lys(Ac)]-[Pen]-Phe[4-(2-aminoethoxy)]-[2-Nal]-[a-MeLys]-[Lys(Ac)]-S-[bA]-NH2; Pen-Pen disulfide) [SEQ ID NO: 271]

Reference: patent US20260116921A1, “PEPTIDE INHIBITORS OF INTERLEUKIN-23 RECEPTOR AND THEIR USE TO TREAT INFLAMMATORY DISEASES” (priority 2018, published 2026)
